Data on 2 substances can be found in article PMC4227728.

The target in experiment [1] is ErbB2 (as used in the ErbB2 ELISA of the Fab mutants) (human) (UniProt P04626). Briefly: ELISA. (In an ELISA, binding on a coated surface is turned into a signal by an enzyme label.)
Experiment [2] concerns the target ErbB2 ECD labeled with an infrared dye (human) (UniProt P04626). The experiment is described as follows: cross-linking.

In experiment [1], Herceptin Fab-AcrK103 displayed a fold reduction of binding against the WT Fab of 20 fold.
Herceptin Fab-VSF92 had a percent of ErbB2 ECD cross-linked in experiment [2] of 80%.
